# Results reported in patent US20220267464A1 (Hoffmann-La Roche, published 2022).
# Positions count from the first letter of the chain named. Numbers in names are those of the source.
# B1: A5H1EL1D Fab (phagemid-derived) (Fab, V domains shown)
# VH: EVQLLESGGGLVQPGGSLRLSCAASGFTFTDYYMNWVRQAPGKGLEWLGFIGNKANAYTTEYSASVKGRFTISRDKSKNTLYLQMNSLRAEDTATYYCTRDRGLRFYFDYWGQGTTVTVSS
# VL: EIVLTQSPATLSLSPGERATLSCRASSSVTYIHWYQQKPGQAPRSWIYATSNLASGIPARFSGSGSGTDFTLTISSLEPEDFAVYYCQHWSSKPPTFGQGTKLEIK
# notes: Flag tag; also called parental humanized clone A5H1EL1D
# B2: P1AE3098 (antibody, IgG1, V domains shown)
# VH: QVQLVQSGAEVKKPGASVKVSCKASGFNIKDSYMHWVRQAPGQGLEWMGWIDPENGDTEYAPKFQGRVTMTTDTSISTAYMELSRLRSDDTAVYYCARGTPTGPYYFDYWGQGTLVTVSS
# VL: EIQMTQSPSSLSASVGDRVTITCRASSSVPYMHWLQQKPGKAPKLLIYSTSNLASGVPSRFSGSGSGTDFTLTISSVQPEDFATYYCQQRSSYPLTFGGGTKLEIK
# notes: huIgG1 P329G LALA; also called MFE-H27 / MFE-L28
# B3: P1AE3104 (antibody, IgG1, V domains shown)
# VH: B2 VH
# VL: B2 VL with L35Y
# notes: huIgG1 P329G LALA; also called MFE-H27 / MFE-L27
# B4: P1AE3106 (antibody, IgG1, V domains shown)
# VH: B2 VH with F27Y, N28T, I29F, A97N, R98E
# VL: B2 VL with L35Y
# notes: huIgG1 P329G LALA; also called MFE-H25 / MFE-L27
# B5: P1AE3116 (antibody, IgG1, V domains shown)
# VH: B2 VH
# VL: B2 VL with P30S, L35Y, V77L
# notes: huIgG1 P329G LALA; also called MFE-H27 / MFE-L25
# B6: P1AE3117 (antibody, IgG1, V domains shown)
# VH: B2 VH with D57G, E59N, P62Q, A97N, R98E
# VL: B2 VL with P30S, L35Y, V77L
# notes: huIgG1 P329G LALA; also called MFE-H26 / MFE-L25
# B7: P1AE3118 (antibody, IgG1, V domains shown)
# VH: B2 VH with F27Y, N28T, I29F, A97N, R98E
# VL: B2 VL with P30S, L35Y, V77L
# notes: huIgG1 P329G LALA; also called MFE-H25 / MFE-L25
# B8: P1AE3122 (antibody, IgG1, V domains shown)
# VH: B2 VH
# VL: B2 VL with E1D, P30S, L35Y, V77L
# notes: huIgG1 P329G LALA; also called MFE-H27 / MFE-L24
# B9: P1AE3123 (antibody, IgG1, V domains shown)
# VH: B2 VH with D57G, E59N, P62Q, A97N, R98E
# VL: B2 VL with E1D, P30S, L35Y, V77L
# notes: huIgG1 P329G LALA; also called MFE-H26 / MFE-L24
# B10: P1AE3124 (antibody, IgG1, V domains shown)
# VH: B2 VH with F27Y, N28T, I29F, A97N, R98E
# VL: B2 VL with E1D, P30S, L35Y, V77L
# notes: huIgG1 P329G LALA; also called MFE-H25 / MFE-L24
# B11: P1AE0289 CEA (A5B7) Fab (parental murine antibody) (Fab, V domains shown)
# VH: EVKLVESGGGLVQPGGSLRLSCATSGFTFTDYYMNWVRQPPGKALEWLGFIGNKANGYTTEYSASVKGRFTISRDKSQSILYLQMNTLRAEDSATYYCTRDRGLRFYFDYWGQGTTLTVSS
# VL: QTVLSQSPAILSASPGEKVTMTCRASSSVTYIHWYQQKPGSSPKSWIYATSNLASGVPARFSGSGSGTSYSLTISRVEAEDAATYYCQHWSSKPPTFGGGTKLEIK
# notes: Fab fragment
# B12: P1AE4138 (Fab, V domains shown)
# VH: B1 VH with A57G
# VL: B1 VL
# notes: Fab fragment; Ckappa light chain; also called Fab derived from P1AE2167
# B13: P1AE4135 (Fab, V domains shown)
# VH: B1 VH with A57G
# VL: B1 VL with E1Q, I2T, Q41S, A42S, R44K, F70Y
# notes: Fab fragment; also called Fab derived from P1AE2164
# B14: P1AE4136 (Fab, V domains shown)
# VH: B1 VH with A57G
# VL: B1 VL with E1Q, I2T, S45L, W46L
# notes: Fab fragment; also called Fab derived from P1AE2165
# B15: P1AE4137 (Fab, V domains shown)
# VH: B1 VH with A57G
# VL: B1 VL with Q41S, A42S, R44K
# notes: Fab fragment; also called Fab derived from P1AE2166
# B16: P1AE4139 (Fab, V domains shown)
# VH: B1 VH with L48V, A57G, K76N, T95V
# VL: B1 VL with Q41S, A42S, R44K
# notes: Fab fragment; also called Fab derived from P1AE2176
# B17: P1AE4140 (Fab, V domains shown)
# VH: B1 VH with L48V, A57G, K76N, T95V
# VL: B1 VL
# notes: Fab fragment; also called Fab derived from P1AE2177
# B18: P1AE4141 (Fab, V domains shown)
# VH: B1 VH with L48V, A57G, T95V, T99A
# VL: B1 VL with E1Q, I2T, Q41S, A42S, R44K, F70Y
# notes: Fab fragment; also called Fab derived from P1AE2179
# B19: P1AE4142 (Fab, V domains shown)
# VH: B1 VH with L48V, A57G, T95V, T99A
# VL: B1 VL with Q41S, A42S, R44K
# notes: Fab fragment; also called Fab derived from P1AE2181
# B20: P1AE4143 (Fab, V domains shown)
# VH: B1 VH with L48V, A57G, T95V, T99A
# VL: B1 VL
# notes: Fab fragment; also called Fab derived from P1AE2182
# Biological target: T1, hu N(A2-B2)A-avi-His (human, biotin on the avi tag where used biotinylated)
# T1 construct: chimeric soluble antigen; also called hu N(A2-B2)A-avi-His B; human CEA (A2 domain)
# T1 chain: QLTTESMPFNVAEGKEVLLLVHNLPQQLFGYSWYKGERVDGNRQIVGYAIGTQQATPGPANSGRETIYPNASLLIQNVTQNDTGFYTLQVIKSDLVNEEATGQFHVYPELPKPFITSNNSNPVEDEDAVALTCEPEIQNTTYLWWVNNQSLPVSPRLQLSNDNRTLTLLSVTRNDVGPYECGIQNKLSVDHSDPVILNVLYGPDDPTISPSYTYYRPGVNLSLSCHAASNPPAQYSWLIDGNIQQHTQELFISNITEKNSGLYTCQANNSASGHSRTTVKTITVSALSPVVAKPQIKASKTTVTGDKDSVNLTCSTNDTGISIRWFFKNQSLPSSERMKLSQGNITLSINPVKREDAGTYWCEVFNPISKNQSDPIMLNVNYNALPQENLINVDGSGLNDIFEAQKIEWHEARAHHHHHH
# Test: SPR (ProteOn XPR36), Fab in bacterial supernatant, biotinylated antigen on NLC chip
# Excerpt: For this experiment, about 2000, 1000, and 500 RU of biotinylated N(A2B2)A-avi-His were immobilized on 3 channels using a Streptavidin-coated NLC chip in vertical orientation. As a control for non-specific binding, 2000 RU of biotinylated NA(B2)A-avi-His protein was immobilized on channel 4. For the off-rate analysis of the identified ELISA-positive clones, injection direction was changed to horizontal orientation. Before injection, each Fab-containing bacterial supernatant was filtered and 3-fold diluted with PBS. The association time was 100 s at 100 μl/minute and dissociation times were either 600 or 1200 s. Bacterial supernatant without Fab fragment was used for referencing. Regeneration was performed with 10 mM glycine pH 1.5 for 35 s at 50 μl/min (vertical orientation).
# Dissociation rate constants (koff) were calculated using a simple one-to-one Langmuir binding model in ProteOn Manager v3.1 software by simultaneously fitting the sensorgrams. […] Shortlisted clones were re-evaluated in an additional SPR experiments under the same conditions. […] Bacterial supernatant without Fab fragment was used for referencing.
row,Binder,koff
1,B1,0.00031 s⁻¹

# Biological target: T2, human CEACAM5 (carcinoembryonic antigen, CEA) on cells (human, UniProt P06731 35-685)
# T2 construct: endogenous on MKN45 gastric adenocarcinoma cells; full-length cDNA stably transfected in the CHO-K1 clones; also called huCEACAM5; MKN45 cells
# T2 sequence: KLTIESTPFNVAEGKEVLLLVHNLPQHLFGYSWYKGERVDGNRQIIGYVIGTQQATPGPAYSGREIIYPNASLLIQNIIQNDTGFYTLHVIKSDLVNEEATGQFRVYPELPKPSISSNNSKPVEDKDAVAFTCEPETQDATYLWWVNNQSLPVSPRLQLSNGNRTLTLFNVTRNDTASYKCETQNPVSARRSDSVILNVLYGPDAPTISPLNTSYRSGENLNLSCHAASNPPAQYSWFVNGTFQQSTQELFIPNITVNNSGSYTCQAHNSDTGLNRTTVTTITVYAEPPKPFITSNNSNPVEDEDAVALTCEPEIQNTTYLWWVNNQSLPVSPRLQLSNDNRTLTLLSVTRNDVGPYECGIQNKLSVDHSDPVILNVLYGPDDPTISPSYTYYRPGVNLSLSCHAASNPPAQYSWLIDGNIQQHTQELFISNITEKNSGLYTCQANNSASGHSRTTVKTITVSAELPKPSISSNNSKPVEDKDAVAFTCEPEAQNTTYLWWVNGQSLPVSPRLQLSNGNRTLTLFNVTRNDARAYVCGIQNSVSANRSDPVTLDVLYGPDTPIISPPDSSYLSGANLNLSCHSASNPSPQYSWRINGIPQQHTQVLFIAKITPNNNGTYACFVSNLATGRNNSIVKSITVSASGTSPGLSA
# Test: flow cytometry, MKN45 cells
# Set-up: AUC: unit not given beside the values
row,Binder,AUC
1,B2,1190
2,B3,414
3,B4,1130
4,B5,443
5,B6,1180
6,B7,559
7,B8,422
8,B9,1090
9,B10,847

# Biological target: T2, human CEACAM5 (carcinoembryonic …)
# Test: flow cytometry, MKN-45 cells, goat F(ab')2 anti-human Fcγ-PE, gMFI
row,Binder,binding result
1,B2,no binding (tested: about 300 nM)
2,B3,no binding (tested: about 300 nM)
3,B4,no binding (tested: about 300 nM)
4,B5,no binding (tested: about 300 nM)
5,B6,no binding (tested: about 300 nM)
6,B7,no binding (tested: about 300 nM)
7,B8,no binding (tested: about 300 nM)
8,B9,no binding (tested: about 300 nM)
9,B10,no binding (tested: about 300 nM)

# Biological target: T1, hu N(A2-B2)A-avi-His
# Test: SPR (ProteOn XPR36), purified Fab, biotinylated antigen on NLC chip
# Protocol: Affinity (KD) of purified Fab fragments was measured by surface plasmon resonance using a Proteon XPR36 machine using the same setup as described before.
# About 2000, 1000, 500, and 250 RU of biotinylated N(A2B2)A-avi-His were immobilized on 4 channels of a Streptavidin-coated NLC chip in vertical orientation. As a control for non-specific binding, 2000 RU of biotinylated NA(B2)A-avi-His protein was immobilized on channel 5. For the determination of the affinity (KD) of the purified clones, injection direction was changed to horizontal orientation. Two-fold dilution series of purified Fab fragments (varying concentration ranges between 100 and 3 nM) were injected simultaneously at 100 μl/min along separate channels 1-5, with association times of 100 s, and dissociation times of 1200 s. Buffer (PBST) was injected along the sixth channel to provide an “in-line” blank for referencing. Regeneration was performed with 10 mM glycine pH 1.5 for 35 s at 50 μl/min (vertical orientation).
# Association rate constants (kon) and dissociation rate constants (koff) were calculated using a simple one-to-one Langmuir binding model in ProteOn Manager v3.1 software by simultaneously fitting the association and dissociation sensorgrams. The equilibrium dissociation constant (KD) was calculated as the ratio koff/kon.
Binder,Kd,koff,kon
B1,2.3 nM,0.000248 s⁻¹,108000 M⁻¹ s⁻¹

# Biological target: T1, hu N(A2-B2)A-avi-His
# Test: SPR (Biacore T200), antigen on CM5 chip, Fab as analyte
# Excerpt: Data were double-referenced against the unimmobilized flow cell 1 and a zero concentration of the analyte. The sensorgrams of the analytes were fitted to a simple 1:1 Langmuir interaction model.
row,Binder,Kd
1,B11,0.559 nM
2,B12,1.47 nM
3,B13,1.7 nM
4,B14,1.25 nM
5,B15,11.3 nM
6,B16,7.58 nM
7,B17,7.62 nM
8,B18,1.83 nM
9,B19,2.64 nM
10,B20,2.92 nM
